# Experimental data: publication PMC8986801, “Activation of the essential kinase PDK1 by phosphoinositide-driven trans-autophosphorylation” (Nature Communications, 2022)
# B1: PDK1^SKD-PIF S241A (PIFtide fused through a (GS)4 linker to the C-terminus of the short kinase domain, S241A) (other)
# chain: QPRKKRPEDFKFGKILGEGSFSTVVLARELATSREYAIKILEKRHIIKENKVPYVTRERDVMSRLDHPFFVKLYFTFQDDEKLYFGLSYAKNGELLKYIRKIGSFDETCTRFYTAEIVSALEYLHGKGIIHRDLKPENILLNEDMHIQITDFGTAKVLSPESKQARANAFVGTAQYVSPELLTEKSACKSSDLWALGCIIYQLVAGLPPFRAGNEYLIFQKIIKLEYDFPEKFFPKARDLVEKLLVLDATKRLGCEEMEGYGPLKAHPFFESVTWENLHQQTPPKLTGSGSGSGSQEMFRDFDYIADWC
# notes: 3-phosphoinositide-dependent kinase 1 (PDK1), human, residues 73-359 (short kinase domain); minimal poly Gly-Ser (GS)4 linker; PIFtide, a peptide derived from the hydrophobic motif of PRK2; also called C-terminal PIFtide SKD fusion S241A; dimer; source: baculovirus-infected Sf9 insect cells, purified (glutathione sepharose, 3C cleavage, HiTrap Q, gel filtration); not shown: GST, N-terminal, …
# Biological target: the molecule itself
# Assay: SEC-MALS; 50 μl of purified protein injected on Superdex 200 10/300; 50 mM Tris pH 7.5, 100 mM NaCl, 2% glycerol, 1 mM TCEP, 2 mM MgCl2, ±1 mM ATP; self-association (monomer or dimer)
protein,measurement,value
B1,stoichiometry N,2
